From IntAct's records for PubMed 31515488

B1: Mothers against decapentaplegic homolog 4 (Homo sapiens), Q13485 (parent)
chain: MDNMSITNTPTSNDACLSIVHSLMCHRQGGESETFAKRAIESLVKKLKEKKDELDSLITAITTNGAHPSKCVTIQRTLDGRLQVAGRKGFPHVIYARLWRWPDLHKNELKHVKYCQYAFDLKCDSVCVNPYHYERVVSPGIDLSGLTLQSNAPSSMMVKDEYVHDFEGQPSLSTEGHSIQTIQHPPSNRASTETYSTPALLAPSESNATSTANFPNIPVASTSQPASILGGSHSEGLLQIASGPQPGQQQNGFTGQPATYHHNSTTTWTGSRTAPYTPNLPHHQNGHLQHHPPMPPHPGHYWPVHNELAFQPPISNHPAPEYWCSIAYFEMDVQVGETFKVPSSCPIVTVDGYVDPSGGDRFCLGQLSNVHRTEAIERARLHIGKGVQLECKGEGDVWVRCLSDHAVFVQSYYLDREAGRAPGDAVHKIYPSAYIKVFDLRQCHRQMQQQAATAQAAAAAQAAAVAGNIPGPGSVGGIAPAISLSAAAGIGVDDLRRLCILRMSFVKGWGPDYPRQSIKETPCWIEIHLHRALQLLDEVLHTMPIADPQPLD
B2: F-box only protein 11 (Homo sapiens), Q86XK2 (parent)
chain: MNSVRAANRRPRRVSRPRPVQQQQQQPPQQPPPQPPQQQPPQQQPPPPPQQQQQQQPPPPPPPPPPLPQERNNVGERDDDVPADMVAEESGPGAQNSPYQLRRKTLLPKRTACPTKNSMEGASTSTTENFGHRAKRARVSGKSQDLSAAPAEQYLQEKLPDEVVLKIFSYLLEQDLCRAACVCKRFSELANDPILWKRLYMEVFEYTRPMMHPEPGKFYQINPEEYEHPNPWKESFQQLYKGAHVKPGFAEHFYSNPARYKGRENMLYYDTIEDALGGVQEAHFDGLIFVHSGIYTDEWIYIESPITMIGAAPGKVADKVIIENTRDSTFVFMEGSEDAYVGYMTIRFNPDDKSAQHHNAHHCLEITVNCSPIIDHCIIRSTCTVGSAVCVSGQGACPTIKHCNISDCENVGLYITDHAQGIYEDNEISNNALAGIWVKNHGNPIIRRNHIHHGRDVGVFTFDHGMGYFESCNIHRNRIAGFEVKAYANPTVVRCEIHHGQTGGIYVHEKGRGQFIENKIYANNFAGVWITSNSDPTIRGNSIFNGNQGGVYIFGDGRGLIEGNDIYGNALAGIQIRTNSCPIVRHNKIHDGQHGGIYVHEKGQGVIEENEVYSNTLAGVWVTTGSTPVLRRNRIHSGKQVGVYFYDNGHGVLEDNDIYNHMYSGVQIRTGSNPKIRRNKIWGGQNGGILVYNSGLGCIEDNEIFDNAMAGVWIKTDSNPTLRRNKIHDGRDGGICIFNGGRGLLEENDIFRNAQAGVLISTNSHPILRKNRIFDGFAAGIEITNHATATLEGNQIFNNRFGGLFLASGVNVTMKDNKIMNNQDAIEKAVSRGQCLYKISSYTSYPMHDFYRCHTCNTTDRNAICVNCIKKCHQGHDVEFIRHDRFFCDCGAGTLSNPCTLAGEPTHDTDTLYDSAPPIESNTLQHN
B3: Inositol monophosphatase 1 (Homo sapiens), P29218-1 (parent)
chain: MADPWQECMDYAVTLARQAGEVVCEAIKNEMNVMLKSSPVDLVTATDQKVEKMLISSIKEKYPSHSFIGEESVAAGEKSILTDNPTWIIDPIDGTTNFVHRFPFVAVSIGFAVNKKIEFGVVYSCVEGKMYTARKGKGAFCNGQKLQVSQQEDITKSLLVTELGSSRTPETVRMVLSNMEKLFCIPVHGIRSVGTAAVNMCLVATGGADAYYEMGIHCWDVAGAGIIVTEAGGVLMDVTGGPFDLMSRRVIAANNRILAERIAKEIQVIPLQRDDED
partner: B3 chain
B4: Golgin-45 (Homo sapiens), Q9H2G9 (parent)
chain: MTTKNLETKVTVTSSPIRGAGDGMETEEPPKSVEVTSGVQSRKHHSLQSPWKKAVPSESPGVLQLGKMLTEKAMEVKAVRILVPKAAITHDIPNKNTKVKSLGHHKGEFLGQSEGVIEPNKELSEVKNVLEKLKNSERRLLQDKEGLSNQLRVQTEVNRELKKLLVASVGDDLQYHFERLAREKNQLILENEALGRNTAQLSEQLERMSIQCDVWRSKFLASRVMADELTNSRAALQRQNRDAHGAIQDLLSEREQFRQEMIATQKLLEELLVSLQWGREQTYSPSVQPHSTAELALTNHKLAKAVNSHLLGNVGINNQKKIPSTVEFCSTPAEKMAETVLRILDPVTCKESSPDNPFFESSPTTLLATKKNIGRFHPYTRYENITFNCCNHCRGELIAL
partner: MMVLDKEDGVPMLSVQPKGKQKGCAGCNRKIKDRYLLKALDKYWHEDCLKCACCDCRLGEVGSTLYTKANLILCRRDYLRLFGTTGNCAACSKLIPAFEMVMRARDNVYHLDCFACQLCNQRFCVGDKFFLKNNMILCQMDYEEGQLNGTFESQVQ
B5: Coiled-coil domain-containing protein 92 (Homo sapiens), Q53HC0 (parent)
chain: MTSPHFSSYDEGPLDVSMAATNLENQLHSAQKNLLFLQREHASTLKGLHSEIRRLQQHCTDLTYELTVKSSEQTGDGTSKSSELKKRCEELEAQLKVKENENAELLKELEQKNAMITVLENTIKEREKKYLEELKAKSHKLTLLSSELEQRASTIAYLTSQLHAAKKKLMSSSGTSDASPSGSPVLASYKPAPPKDKLPETPRRRMKKSLSAPLHPEFEEVYRFGAESRKLLLREPVDAMPDPTPFLLARESAEVHLIKERPLVIPPIASDRSGEQHSPAREKPHKAHVGVAHRIHHATPPQAQPEVKTLAVDQVNGGKVVRKHSGTDRTV
partner: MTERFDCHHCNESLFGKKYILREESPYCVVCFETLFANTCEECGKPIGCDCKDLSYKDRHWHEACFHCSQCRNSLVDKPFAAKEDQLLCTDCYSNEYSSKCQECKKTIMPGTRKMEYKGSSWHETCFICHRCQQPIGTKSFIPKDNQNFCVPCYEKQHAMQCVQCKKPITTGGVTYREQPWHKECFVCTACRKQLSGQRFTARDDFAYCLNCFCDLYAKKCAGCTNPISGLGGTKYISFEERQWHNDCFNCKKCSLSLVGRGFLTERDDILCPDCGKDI
B6: U6 snRNA-associated Sm-like protein LSm7 (Homo sapiens), Q9UK45 (parent)
chain: MADKEKKKKESILDLSKYIDKTIRVKFQGGREASGILKGFDPLLNLVLDGTIEYMRDPDDQYKLTEDTRQLGLVVCRGTSVVLICPQDGMEAIPNPFIQQQDA
B7: Transmembrane protein 51 (Homo sapiens), Q9NW97 (parent)
chain: MMAQSKANGSHYALTAIGLGMLVLGVIMAMWNLVPGFSAAEKPTAQGSNKTEVGGGILKSKTFSVAYVLVGAGVMLLLLSICLSIRDKRKQRQGEDLAHVQHPTGAGPHAQEEDSQEEEEEDEEAASRYYVPSYEEVMNTNYSEARGEEQNPRLSISLPSYESLTGLDETTPTSTRADVEASPGNPPDRQNSKLAKRLKPLKVRRIKSEKLHLKDFRINLPDKNVPPPSIEPLTPPPQYDEVQEKAPDTRPPD
partner: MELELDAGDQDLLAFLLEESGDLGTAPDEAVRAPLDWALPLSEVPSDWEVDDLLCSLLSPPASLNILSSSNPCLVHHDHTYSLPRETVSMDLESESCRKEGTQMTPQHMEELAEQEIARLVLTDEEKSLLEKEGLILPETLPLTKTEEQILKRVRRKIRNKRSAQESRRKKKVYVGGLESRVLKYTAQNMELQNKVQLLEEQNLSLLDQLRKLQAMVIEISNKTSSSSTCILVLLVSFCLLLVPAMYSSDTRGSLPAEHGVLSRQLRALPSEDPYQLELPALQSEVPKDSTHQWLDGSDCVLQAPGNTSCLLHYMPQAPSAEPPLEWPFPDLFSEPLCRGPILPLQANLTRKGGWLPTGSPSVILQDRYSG
B8: Tripartite motif-containing protein 59 (Homo sapiens), Q8IWR1 (parent)
chain: MHNFEEELTCPICYSIFEDPRVLPCSHTFCRNCLENILQASGNFYIWRPLRIPLKCPNCRSITEIAPTGIESLPVNFALRAIIEKYQQEDHPDIVTCPEHYRQPLNVYCLLDKKLVCGHCLTIGQHHGHPIDDLQSAYLKEKDTPQKLLEQLTDTHWTDLTHLIEKLKEQKSHSEKMIQGDKEAVLQYFKELNDTLEQKKKSFLTALCDVGNLINQEYTPQIERMKEIREQQLELMALTISLQEESPLKFLEKVDDVRQHVQILKQRPLPEVQPVEIYPRVSKILKEEWSRTEIGQIKNVLIPKMKISPKRMSCSWPGKDEKEVEFLKILNIVVVTLISVILMSILFFNQHIITFLSEITLIWFSEASLSVYQSLSNSLHKVKNILCHIFYLLKEFVWKIVSH
partner: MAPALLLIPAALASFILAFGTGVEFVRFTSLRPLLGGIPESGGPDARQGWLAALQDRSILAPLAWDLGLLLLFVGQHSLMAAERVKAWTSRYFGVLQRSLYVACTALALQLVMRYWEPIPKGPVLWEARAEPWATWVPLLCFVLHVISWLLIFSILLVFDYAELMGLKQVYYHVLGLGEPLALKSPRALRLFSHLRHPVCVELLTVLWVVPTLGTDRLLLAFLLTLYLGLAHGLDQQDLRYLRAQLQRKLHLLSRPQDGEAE
B9: Placental protein 13-like (Homo sapiens), Q8TCE9 (parent)
chain: MSSLPVPYTLPVSLPVGSCVIITGTPILTFVKDPQLEVNFYTGMDEDSDIAFQFRLHFGHPAIMNSCVFGIWRYEEKCYYLPFEDGKPFELCIYVRHKEYKVMVNGQRIYNFAHRFPPASVKMLQVFRDISLTRVLISD
partner: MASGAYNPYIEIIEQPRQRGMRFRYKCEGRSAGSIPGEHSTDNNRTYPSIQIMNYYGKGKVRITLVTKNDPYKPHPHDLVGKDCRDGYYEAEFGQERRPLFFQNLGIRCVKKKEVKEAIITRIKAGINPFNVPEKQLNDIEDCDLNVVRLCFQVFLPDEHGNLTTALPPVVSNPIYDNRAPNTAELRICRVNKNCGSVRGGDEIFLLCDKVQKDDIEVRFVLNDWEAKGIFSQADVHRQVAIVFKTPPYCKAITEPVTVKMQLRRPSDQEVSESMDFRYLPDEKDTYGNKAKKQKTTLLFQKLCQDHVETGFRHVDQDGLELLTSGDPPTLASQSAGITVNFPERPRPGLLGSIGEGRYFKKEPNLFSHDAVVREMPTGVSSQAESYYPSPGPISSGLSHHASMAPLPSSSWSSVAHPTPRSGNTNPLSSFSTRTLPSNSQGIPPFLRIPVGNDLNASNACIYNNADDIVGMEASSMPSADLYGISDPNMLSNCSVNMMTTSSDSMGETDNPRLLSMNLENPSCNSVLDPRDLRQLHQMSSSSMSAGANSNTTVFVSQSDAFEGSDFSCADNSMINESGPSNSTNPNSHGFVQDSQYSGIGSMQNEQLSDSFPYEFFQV
B10: Four and a half LIM domains protein 2 (Homo sapiens), Q14192 (parent)
chain: B5 partner

Variants of: B1
Conditions: with smad9_human SMAD9, O15198
Chain of smad9_human SMAD9, O15198 (O15198 whole entry): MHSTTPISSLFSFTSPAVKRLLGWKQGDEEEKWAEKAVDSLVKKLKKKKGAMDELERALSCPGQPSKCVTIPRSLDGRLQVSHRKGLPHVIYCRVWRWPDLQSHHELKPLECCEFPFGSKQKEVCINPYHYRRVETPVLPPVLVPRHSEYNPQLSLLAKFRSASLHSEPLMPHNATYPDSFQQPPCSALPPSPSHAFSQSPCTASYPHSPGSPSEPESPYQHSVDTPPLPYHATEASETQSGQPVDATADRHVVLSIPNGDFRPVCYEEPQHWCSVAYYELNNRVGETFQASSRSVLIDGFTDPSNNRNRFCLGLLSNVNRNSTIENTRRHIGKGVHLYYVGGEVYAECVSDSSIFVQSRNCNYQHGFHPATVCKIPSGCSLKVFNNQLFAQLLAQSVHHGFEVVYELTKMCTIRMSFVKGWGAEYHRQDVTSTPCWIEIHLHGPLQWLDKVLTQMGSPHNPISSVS

Row | Variant | effect of a mutation on the interaction
1 | G352R | disrupting interaction strength
2 | E330K | disrupting interaction strength
3 | R361C | disrupting interaction strength

Variants of: B1
Conditions: with smad3_human SMAD3, P84022
Chain of smad3_human SMAD3, P84022 (P84022 whole entry, looked up): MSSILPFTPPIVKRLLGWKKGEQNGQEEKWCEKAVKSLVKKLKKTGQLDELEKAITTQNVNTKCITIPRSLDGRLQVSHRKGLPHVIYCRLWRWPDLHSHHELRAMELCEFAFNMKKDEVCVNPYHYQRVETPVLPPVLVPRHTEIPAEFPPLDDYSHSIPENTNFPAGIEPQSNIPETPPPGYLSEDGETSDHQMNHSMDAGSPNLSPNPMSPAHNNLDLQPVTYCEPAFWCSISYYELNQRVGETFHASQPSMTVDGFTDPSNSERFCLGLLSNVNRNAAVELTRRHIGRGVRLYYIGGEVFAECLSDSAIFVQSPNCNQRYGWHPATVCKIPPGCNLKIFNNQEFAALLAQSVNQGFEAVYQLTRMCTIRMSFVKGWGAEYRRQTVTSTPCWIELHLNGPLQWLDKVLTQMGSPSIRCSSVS

Row | Variant | effect of a mutation on the interaction
4 | G352R | disrupting interaction strength
5 | E330K | disrupting interaction strength
6 | T174N | with no effect
7 | R361C | disrupting interaction strength

Variants of: B1
Conditions: with ews_human EWSR1, Q01844
Chain of ews_human EWSR1, Q01844 (Q01844 whole entry): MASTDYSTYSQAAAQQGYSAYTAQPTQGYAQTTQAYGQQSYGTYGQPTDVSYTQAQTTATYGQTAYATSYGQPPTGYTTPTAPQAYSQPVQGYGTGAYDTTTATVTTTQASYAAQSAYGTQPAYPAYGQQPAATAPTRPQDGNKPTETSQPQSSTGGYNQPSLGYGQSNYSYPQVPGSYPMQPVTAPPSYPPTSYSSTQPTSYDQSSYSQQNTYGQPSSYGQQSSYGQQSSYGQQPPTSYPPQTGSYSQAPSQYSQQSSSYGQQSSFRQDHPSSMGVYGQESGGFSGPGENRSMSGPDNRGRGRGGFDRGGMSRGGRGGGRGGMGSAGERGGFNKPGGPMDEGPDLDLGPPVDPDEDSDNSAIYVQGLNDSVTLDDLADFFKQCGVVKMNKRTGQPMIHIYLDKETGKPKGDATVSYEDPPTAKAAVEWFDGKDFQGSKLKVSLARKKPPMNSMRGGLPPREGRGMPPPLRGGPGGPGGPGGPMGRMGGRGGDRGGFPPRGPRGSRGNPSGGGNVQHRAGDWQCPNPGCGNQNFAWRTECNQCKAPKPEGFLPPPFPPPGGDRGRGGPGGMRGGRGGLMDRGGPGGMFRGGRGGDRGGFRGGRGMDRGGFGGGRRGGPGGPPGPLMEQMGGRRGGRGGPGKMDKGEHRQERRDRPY

Row | Variant | effect of a mutation on the interaction
8 | T174N | with no effect

Variants of: B2
Conditions: with skp1_human SKP1, P63208
Chain of skp1_human SKP1, P63208 (P63208 whole entry): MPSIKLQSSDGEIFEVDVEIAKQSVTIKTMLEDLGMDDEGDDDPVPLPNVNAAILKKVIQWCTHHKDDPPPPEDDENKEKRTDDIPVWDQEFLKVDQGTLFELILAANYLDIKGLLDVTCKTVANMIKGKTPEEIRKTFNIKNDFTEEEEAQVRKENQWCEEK

Row | Variant | effect of a mutation on the interaction
9 | I306V | with no effect
10 | Y226C | with no effect

Variants of: B3
Conditions: with impa1_human IMPA1, P29218

Row | Variant | effect of a mutation on the interaction
11 | G164S | with no effect

Variants of: B4
Conditions: with rbtn1_human LMO1, P25800

Row | Variant | effect of a mutation on the interaction
12 | H45R | with no effect
13 | Q40R | with no effect

Variants of: B5
Conditions: with fhl2_human FHL2, Q14192

Row | Variant | effect of a mutation on the interaction
14 | S70C | with no effect

Variants of: B6
Conditions: with lsm5_human LSM5, Q9Y4Y9
Chain of lsm5_human LSM5, Q9Y4Y9 (Q9Y4Y9 whole entry): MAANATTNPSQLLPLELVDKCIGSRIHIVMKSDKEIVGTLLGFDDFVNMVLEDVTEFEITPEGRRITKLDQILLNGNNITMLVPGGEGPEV

Row | Variant | effect of a mutation on the interaction
15 | G78A | with no effect

Variants of: B7
Conditions: with creb3_human CREB3, O43889

Row | Variant | effect of a mutation on the interaction
16 | D188G | with no effect
17 | R146W | with no effect
18 | P237L | with no effect
19 | P159S | with no effect

Variants of: B8
Conditions: with nrm_human NRM

Row | Variant | effect of a mutation on the interaction
20 | R258C | with no effect

Variants of: B9
Conditions: with rel_human REL

Row | Variant | effect of a mutation on the interaction
21 | M123T | with no effect

Variants of: B10
Conditions: with inca1_human INCA1, Q0VD86
Chain of inca1_human INCA1, Q0VD86 (Q0VD86 whole entry): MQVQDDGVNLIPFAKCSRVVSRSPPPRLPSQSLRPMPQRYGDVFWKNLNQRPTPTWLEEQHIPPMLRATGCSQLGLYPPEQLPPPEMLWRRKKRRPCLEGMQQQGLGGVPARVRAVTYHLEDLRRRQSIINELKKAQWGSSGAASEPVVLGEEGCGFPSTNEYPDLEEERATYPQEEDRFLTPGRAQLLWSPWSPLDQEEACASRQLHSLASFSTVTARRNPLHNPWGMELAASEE

Row | Variant | effect of a mutation on the interaction
22 | A37S | with no effect
23 | N95K | with no effect

Variants of: B10
Conditions: with gbg12_human GNG12, Q9UBI6
Chain of gbg12_human GNG12, Q9UBI6 (Q9UBI6 whole entry): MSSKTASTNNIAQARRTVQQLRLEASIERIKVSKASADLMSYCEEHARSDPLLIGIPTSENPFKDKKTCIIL

Row | Variant | effect of a mutation on the interaction
24 | R177Q | with no effect
